Measurements reported in the supplement of paper PMC10065799, “High-throughput profiling of sequence recognition by tyrosine kinases and SH2 domains using bacterial peptide display” (eLife, 2023).

Key:
c-Src SH2 = assay: SH2 binding enrichment of the phosphorylated peptide, bacterial display (enrichment ratio); higher = better substrate or ligand; peptides without Tyr show the background
Grb2 SH2 = Grb2 SH2 (UniProt P62993); assay: as above
SHP2-C SH2 = assay: as above
Fer (mouse) = assay: phosphorylation enrichment, bacterial display (enrichment ratio); higher = better substrate or ligand; peptides without Tyr show the background
Fes = Fes (UniProt P07332); assay: as above
FGFR3 = FGFR3 (UniProt P22607); assay: as above
Jak2 = Jak2 (UniProt O60674); assay: as above
c-Abl (mouse) = assay: as above
Fyn = Fyn (UniProt P06241); assay: as above
AncSZ = assay: as above
EPHB2 = EPHB2 (UniProt P29323); assay: as above
EPHB1 = EPHB1 (UniProt P54762); assay: as above
MERTK = MERTK (UniProt Q12866); assay: as above
FGFR1 = FGFR1 (UniProt P11362); assay: as above
c-Src = assay: as above
Hck = Hck (UniProt P08631); assay: as above
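For SH2 binding enrichment of the phosphorylated peptide, bacterial display in this document: peptide library displayed on the E. coli surface as eCPX fusions, selected cells deep-sequenced, score is each peptide's frequency after selection divided by its frequency in the input.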
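For phosphorylation enrichment, bacterial display in this document: 11-residue human phosphosite peptides and single-mutation variants displayed on the E. coli surface, counted by deep sequencing, each peptide's frequency after selection divided by its frequency in the unselected input library; frequency after pTyr selection over input frequency; kinase dosed for 20-30% of maximal phosphorylation in three min.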

Chain of Fyn (P06241 whole entry, looked up): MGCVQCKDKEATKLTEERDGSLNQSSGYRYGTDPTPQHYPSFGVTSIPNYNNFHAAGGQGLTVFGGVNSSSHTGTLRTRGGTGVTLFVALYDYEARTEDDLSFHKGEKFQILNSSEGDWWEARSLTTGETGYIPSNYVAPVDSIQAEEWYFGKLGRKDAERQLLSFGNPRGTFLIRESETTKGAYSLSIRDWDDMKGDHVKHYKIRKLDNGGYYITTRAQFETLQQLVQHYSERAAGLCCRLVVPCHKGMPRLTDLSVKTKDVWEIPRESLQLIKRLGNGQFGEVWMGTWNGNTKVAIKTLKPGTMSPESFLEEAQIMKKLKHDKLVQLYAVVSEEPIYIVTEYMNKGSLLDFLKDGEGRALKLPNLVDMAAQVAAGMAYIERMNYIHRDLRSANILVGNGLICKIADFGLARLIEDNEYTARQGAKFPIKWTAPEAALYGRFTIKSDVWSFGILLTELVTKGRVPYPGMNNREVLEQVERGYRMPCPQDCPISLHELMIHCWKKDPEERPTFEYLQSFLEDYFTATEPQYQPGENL
Chain of Jak2 (O60674 whole entry, looked up): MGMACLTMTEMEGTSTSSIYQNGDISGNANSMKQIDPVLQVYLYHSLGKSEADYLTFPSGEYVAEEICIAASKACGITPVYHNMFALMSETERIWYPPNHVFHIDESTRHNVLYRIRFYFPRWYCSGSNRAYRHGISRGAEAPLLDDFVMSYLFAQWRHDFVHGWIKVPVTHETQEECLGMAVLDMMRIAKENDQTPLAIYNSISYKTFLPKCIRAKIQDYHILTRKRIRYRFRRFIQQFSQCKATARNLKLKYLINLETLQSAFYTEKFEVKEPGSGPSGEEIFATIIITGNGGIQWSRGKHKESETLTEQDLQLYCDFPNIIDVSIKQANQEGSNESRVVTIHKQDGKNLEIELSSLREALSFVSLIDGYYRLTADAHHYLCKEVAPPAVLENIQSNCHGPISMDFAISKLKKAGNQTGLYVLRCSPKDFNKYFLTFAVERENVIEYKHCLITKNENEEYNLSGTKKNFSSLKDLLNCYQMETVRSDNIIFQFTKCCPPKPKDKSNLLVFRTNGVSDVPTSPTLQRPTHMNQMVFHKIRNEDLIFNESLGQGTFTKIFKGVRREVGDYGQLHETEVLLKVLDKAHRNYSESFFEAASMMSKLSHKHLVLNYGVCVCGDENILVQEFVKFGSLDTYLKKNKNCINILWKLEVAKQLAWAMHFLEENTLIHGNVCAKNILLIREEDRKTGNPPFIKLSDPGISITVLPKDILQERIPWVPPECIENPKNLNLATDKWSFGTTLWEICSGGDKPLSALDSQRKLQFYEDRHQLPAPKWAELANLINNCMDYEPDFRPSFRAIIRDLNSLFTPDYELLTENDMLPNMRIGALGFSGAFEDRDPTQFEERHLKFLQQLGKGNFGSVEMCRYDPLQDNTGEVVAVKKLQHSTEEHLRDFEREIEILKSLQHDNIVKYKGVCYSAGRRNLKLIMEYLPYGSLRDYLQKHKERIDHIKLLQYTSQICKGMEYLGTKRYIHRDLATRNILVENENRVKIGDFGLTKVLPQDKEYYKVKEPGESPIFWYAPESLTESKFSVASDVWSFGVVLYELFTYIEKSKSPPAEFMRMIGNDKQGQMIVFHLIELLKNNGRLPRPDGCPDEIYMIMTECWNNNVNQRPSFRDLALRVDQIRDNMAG
Chain of FGFR1 (P11362 whole entry, looked up): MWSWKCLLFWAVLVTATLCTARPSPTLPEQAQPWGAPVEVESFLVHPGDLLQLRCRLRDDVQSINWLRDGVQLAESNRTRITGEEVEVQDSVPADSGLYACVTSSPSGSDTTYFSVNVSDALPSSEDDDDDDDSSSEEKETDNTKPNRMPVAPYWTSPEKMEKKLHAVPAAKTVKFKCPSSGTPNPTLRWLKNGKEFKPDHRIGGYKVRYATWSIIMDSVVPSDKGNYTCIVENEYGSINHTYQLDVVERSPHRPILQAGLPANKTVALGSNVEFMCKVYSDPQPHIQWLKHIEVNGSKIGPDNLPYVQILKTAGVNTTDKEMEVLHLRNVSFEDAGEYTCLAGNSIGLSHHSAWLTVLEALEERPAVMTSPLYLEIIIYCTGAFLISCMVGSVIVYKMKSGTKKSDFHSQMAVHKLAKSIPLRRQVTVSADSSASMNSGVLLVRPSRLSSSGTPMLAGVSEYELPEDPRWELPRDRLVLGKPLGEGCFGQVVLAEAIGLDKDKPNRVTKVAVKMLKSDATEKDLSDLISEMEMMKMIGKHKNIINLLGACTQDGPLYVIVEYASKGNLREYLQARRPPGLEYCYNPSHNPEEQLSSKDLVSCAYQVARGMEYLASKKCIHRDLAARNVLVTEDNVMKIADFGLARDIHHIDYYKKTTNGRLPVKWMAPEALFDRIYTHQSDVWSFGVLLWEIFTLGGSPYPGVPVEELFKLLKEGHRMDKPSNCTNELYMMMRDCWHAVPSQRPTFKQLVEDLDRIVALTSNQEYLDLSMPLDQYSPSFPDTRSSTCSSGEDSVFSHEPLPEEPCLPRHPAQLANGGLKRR
Chain of Hck (P08631 whole entry, looked up, the tested form may be a part): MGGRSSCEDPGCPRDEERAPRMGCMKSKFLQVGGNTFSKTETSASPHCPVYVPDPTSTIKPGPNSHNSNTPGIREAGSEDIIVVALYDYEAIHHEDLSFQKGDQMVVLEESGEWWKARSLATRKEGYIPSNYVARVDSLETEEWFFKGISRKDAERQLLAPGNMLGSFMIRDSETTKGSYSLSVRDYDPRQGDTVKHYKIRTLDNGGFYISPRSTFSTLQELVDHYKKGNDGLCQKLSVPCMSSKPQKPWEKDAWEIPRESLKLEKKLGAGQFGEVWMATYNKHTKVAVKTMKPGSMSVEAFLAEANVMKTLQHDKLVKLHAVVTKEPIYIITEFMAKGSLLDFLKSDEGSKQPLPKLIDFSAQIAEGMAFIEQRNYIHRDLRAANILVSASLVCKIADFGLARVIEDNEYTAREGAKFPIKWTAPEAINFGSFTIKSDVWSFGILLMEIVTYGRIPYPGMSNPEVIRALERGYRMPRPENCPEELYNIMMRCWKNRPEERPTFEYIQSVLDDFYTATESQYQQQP
Chain of EPHB1 (P54762 whole entry, looked up): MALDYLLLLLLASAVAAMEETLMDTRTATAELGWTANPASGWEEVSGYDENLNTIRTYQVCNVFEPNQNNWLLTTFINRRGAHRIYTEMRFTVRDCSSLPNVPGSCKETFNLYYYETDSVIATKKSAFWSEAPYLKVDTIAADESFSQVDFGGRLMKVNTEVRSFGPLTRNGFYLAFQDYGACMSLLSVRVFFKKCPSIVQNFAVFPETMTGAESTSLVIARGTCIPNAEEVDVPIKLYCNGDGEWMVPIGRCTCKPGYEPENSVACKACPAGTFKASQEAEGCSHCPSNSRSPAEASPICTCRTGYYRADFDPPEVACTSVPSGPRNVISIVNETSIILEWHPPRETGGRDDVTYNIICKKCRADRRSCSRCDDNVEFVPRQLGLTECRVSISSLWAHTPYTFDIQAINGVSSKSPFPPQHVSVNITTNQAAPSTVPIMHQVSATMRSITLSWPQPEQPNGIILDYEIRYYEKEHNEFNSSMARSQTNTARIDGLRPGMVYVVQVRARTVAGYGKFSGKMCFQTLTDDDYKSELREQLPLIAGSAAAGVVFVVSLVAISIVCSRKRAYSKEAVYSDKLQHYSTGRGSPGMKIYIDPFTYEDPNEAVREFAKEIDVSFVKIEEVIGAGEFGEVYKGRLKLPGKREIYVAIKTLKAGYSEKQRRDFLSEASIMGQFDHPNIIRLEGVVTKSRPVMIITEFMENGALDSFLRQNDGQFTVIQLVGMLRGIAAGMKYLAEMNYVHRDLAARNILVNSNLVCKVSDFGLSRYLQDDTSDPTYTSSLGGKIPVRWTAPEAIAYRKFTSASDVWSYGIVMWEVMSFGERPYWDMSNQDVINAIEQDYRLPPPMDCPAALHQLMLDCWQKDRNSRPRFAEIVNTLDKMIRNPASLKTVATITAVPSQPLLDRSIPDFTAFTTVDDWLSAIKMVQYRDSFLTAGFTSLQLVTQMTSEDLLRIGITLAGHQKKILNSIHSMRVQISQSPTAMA
Chain of Fes (P07332 whole entry, looked up): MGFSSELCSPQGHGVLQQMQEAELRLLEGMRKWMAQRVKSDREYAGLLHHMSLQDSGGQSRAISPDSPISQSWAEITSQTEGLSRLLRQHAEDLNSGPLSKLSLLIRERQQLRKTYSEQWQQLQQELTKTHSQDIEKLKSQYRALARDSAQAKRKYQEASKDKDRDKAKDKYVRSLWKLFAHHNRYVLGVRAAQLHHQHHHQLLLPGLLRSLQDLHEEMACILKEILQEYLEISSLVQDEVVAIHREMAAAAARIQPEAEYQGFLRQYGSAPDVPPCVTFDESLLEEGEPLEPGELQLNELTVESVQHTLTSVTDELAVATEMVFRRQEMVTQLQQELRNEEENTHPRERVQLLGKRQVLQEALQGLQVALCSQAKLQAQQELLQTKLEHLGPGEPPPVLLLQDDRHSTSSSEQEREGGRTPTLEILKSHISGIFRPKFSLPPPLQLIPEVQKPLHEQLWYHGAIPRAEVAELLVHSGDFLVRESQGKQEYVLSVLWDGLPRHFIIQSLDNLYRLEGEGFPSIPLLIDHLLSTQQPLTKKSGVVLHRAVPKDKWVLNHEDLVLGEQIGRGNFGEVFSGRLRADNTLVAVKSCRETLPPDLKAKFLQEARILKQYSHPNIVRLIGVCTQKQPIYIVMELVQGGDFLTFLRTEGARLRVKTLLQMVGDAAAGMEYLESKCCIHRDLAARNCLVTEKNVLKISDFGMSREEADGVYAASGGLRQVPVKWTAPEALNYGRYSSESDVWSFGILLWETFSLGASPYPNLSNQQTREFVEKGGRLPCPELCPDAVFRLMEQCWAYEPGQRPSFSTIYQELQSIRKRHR

Sequence | SH2 binding enrichment (c-Src SH2) | SH2 binding enrichment (Grb2 SH2) | SH2 binding enrichment (SHP2-C SH2) | phosphorylation enrichment (Fer (mouse)) | phosphorylation enrichment (Fes) | phosphorylation enrichment (FGFR3) | phosphorylation enrichment (Jak2) | phosphorylation enrichment (c-Abl (mouse)) | phosphorylation enrichment (Fyn) | phosphorylation enrichment (AncSZ) | phosphorylation enrichment (EPHB2) | phosphorylation enrichment (EPHB1) | phosphorylation enrichment (MERTK) | phosphorylation enrichment (FGFR1) | phosphorylation enrichment (c-Src) | phosphorylation enrichment (Hck)
TDLAYYLVCKG [ASL_Y376_R379C] | 0.461 | 0.959 | 0.829 | 0.581 | 1.57 | 2.33 | 1.74 | 0.903 | 0.689 | 1.46 | 0.66 | 0.883 | 0.79 | 2.39 | 0.825 | 0.75
TEFIQYMRRKN [MAX_Y73_YF] | 0.387 | 0.675 | 0.54 | 0.51 | 0.629 | 0.486 | 0.594 | 0.404 | 0.547 | 0.701 | 0.732 | 0.44 | 0.472 | 0.367 | 0.521 | 0.458
TGHKGYVAFLE [CARD9_Y76] | 1.93 | 0.739 | 0.81 | 0.403 | 0.666 | 0.507 | 0.635 | 0.617 | 0.358 | 0.674 | 0.466 | 0.392 | 0.396 | 0.414 | 0.394 | 0.494
TIEDSYRKQVV [KRAS_Y40] | 0.428 | 0.818 | 0.6 | 0.348 | 0.79 | 0.561 | 0.703 | 0.599 | 0.388 | 0.62 | 0.371 | 0.383 | 0.369 | 0.398 | 0.426 | 0.358
TIMTDYNPNFC [ALK_Y1092_YF] | 0.633 | 0.999 | 0.674 | 0.373 | 0.917 | 0.549 | 0.795 | 0.783 | 0.499 | 0.858 | 0.491 | 0.498 | 0.395 | 0.533 | 0.545 | 0.47
TINPIHEHVGY [CHN1_Y143_Y143H] | 0.58 | 0.823 | 0.87 | 0.757 | 0.727 | 0.414 | 0.864 | 0.57 | 0.377 | 0.679 | 0.433 | 0.674 | 0.446 | 0.426 | 0.423 | 0.474
TISPFYCQSLF [CRYAA_Y48_R49C_YF] | 0.632 | 0.912 | 0.707 | 0.837 | 1.2 | 0.723 | 0.992 | 0.768 | 0.571 | 1.05 | 0.579 | 0.682 | 1.8 | 0.535 | 0.516 | 0.643
TISPYYRQSLF [CRYAA_Y48] | 0.678 | 0.783 | 0.767 | 0.479 | 0.787 | 0.653 | 0.745 | 0.617 | 0.414 | 0.859 | 0.474 | 0.526 | 0.468 | 0.613 | 0.492 | 0.433
TKVTFYKQPMF [GBA_Y451_D448V] | 0.453 | 0.777 | 0.737 | 0.42 | 0.936 | 0.631 | 0.853 | 0.588 | 0.506 | 0.981 | 0.526 | 0.439 | 0.419 | 0.461 | 0.337 | 0.458

Now from value to sequence, other results behind:

SH2 binding enrichment (c-Src SH2) | SH2 binding enrichment (Grb2 SH2) | SH2 binding enrichment (SHP2-C SH2) | Sequence | phosphorylation enrichment (Fer (mouse)) | phosphorylation enrichment (Fes) | phosphorylation enrichment (FGFR3) | phosphorylation enrichment (Jak2) | phosphorylation enrichment (c-Abl (mouse)) | phosphorylation enrichment (Fyn) | phosphorylation enrichment (AncSZ) | phosphorylation enrichment (EPHB2) | phosphorylation enrichment (EPHB1) | phosphorylation enrichment (MERTK) | phosphorylation enrichment (FGFR1) | phosphorylation enrichment (c-Src) | phosphorylation enrichment (Hck)
0.761 | 0.794 | 1.24 | TAGFIYEKWEI [TEC_Y360_S359I] | 11.6 | 1.72 | 0.804 | 1.24 | 1.12 | 2.78 | 1.45 | 1.45 | 1.35 | 4.47 | 0.474 | 4.11 | 3.79
0.494 | 0.891 | 0.721 | TALFIYIRPKA [OR10C1_Y258] | 0.508 | 1.22 | 0.712 | 0.945 | 0.624 | 0.55 | 1.23 | 0.697 | 0.406 | 0.388 | 0.556 | 0.304 | 0.523
0.466 | 0.724 | 0.583 | TENAGYFFRVS | 0.536 | 1.36 | 0.853 | 1.45 | 1.15 | 0.389 | 1.25 | 0.565 | 0.614 | 0.369 | 0.442 | 0.41 | 0.457
2.23 | 0.798 | 0.731 | TEQDPYNNIDR [MMUT_Y364_V368D] | 0.486 | 1.06 | 0.641 | 0.791 | 0.658 | 0.505 | 1.08 | 0.565 | 0.638 | 0.475 | 0.728 | 0.486 | 0.501
0.523 | 0.826 | 0.794 | TFEPNYGTVKQ [RAPGEF6_Y1447_YF] | 0.881 | 0.607 | 0.63 | 0.488 | 0.522 | 1.36 | 1.01 | 1.53 | 0.582 | 0.442 | 0.471 | 1.22 | 0.822
0.568 | 0.955 | 0.896 | TFQFKYPEGSS [TGM4_Y440_E437Q_YF] | 0.363 | 0.943 | 0.722 | 0.69 | 0.564 | 0.529 | 0.841 | 0.478 | 0.496 | 0.44 | 0.521 | 0.427 | 0.491
0.541 | 0.786 | 0.686 | TKQLTYEEQDL [PIK3C3_Y310] | 0.649 | 1.38 | 0.791 | 1.19 | 1.01 | 0.529 | 1.27 | 0.653 | 0.655 | 0.483 | 0.576 | 0.539 | 0.552
